The test system of assay [1] is Arabidopsis mik2 mutant detached rosette leaves. Briefly: Detached leaf senescence assay, mik2 mutants. It counts as in vivo, Arabidopsis thaliana. Conditions: SCOOP10 1 μM (Figures 3A–3C). The protocol: (§1) A. thaliana ecotype Columbia-0 and mutants used in this study include mik2-1 (SALK_06269), mik2-2 (CS419958), proscoop10-1 (SALK_080439), and proscoop10-2 (SALK_027949), which were obtained from ABRC. The proscoop12 CRISPR-Cas9-generated mutants were kindly provided by Dr. Elia Stahi at the University of Lausanne, Switzerland ([Stahl et al., 2022]). Imbibed seeds were incubated at 4°C in a refrigerator for 2 days before sowing on the soil mix (3 parts commercial soil: 1 parts vermiculite) and grown under the long-day condition (16 h light/8 h dark) in a growth chamber with 150 μmol m^−2 s^−1 light intensity. For the senescence phenotyping of detached leaves, the fifth and sixth rosette leaves of 25-day-old plants were removed and placed in Petri dishes with the adaxial side facing up. The Petri dishes were sealed with parafilm to prevent water loss, and the leaves were incubated with deionized water. The application of exogenous peptides followed the previously established method ([Zhang et al., 2022a], [2022b]). […] All data including plant phenotypes and gene expression presented in this study were analyzed with GraphPad Prism 9, and at least three biological replicates were included in each experiment. Chl content, photochemical efficiency of PSII (Fv/Fm ratio), and ion leakage were determined as previously described ([Zhang et al., 2020], [2022b]; [Guo et al., 2022]).

Assay [2] has as its system Arabidopsis WT (Col-0) detached rosette leaves. Briefly: Detached leaf senescence assay, WT. It counts as in vivo, Arabidopsis thaliana. The protocol: as §1
The subject of assay [3] is purified His-tagged MIK2 ectodomain. Briefly: Pull-down assay with biotinylated peptides. It counts as binding, Arabidopsis thaliana. Conditions: biotinylated peptide, streptavidin magnetic beads, 20 mM Tris-HCl pH 7.3, 150 mM NaCl, 0.1% NP-40, anti-His Western blot, repeated three times, conclusion also rests on MST. Here is the method:
(§2) Subsequently, 30 μL streptavidin magnetic beads (New England Biolabs) were added to each sample and incubated for 1 h at 4°C, followed by washing 5–6 times with 1.0 mL of interactive buffer. The proteins bound to the beads were then eluted using interactive buffer containing 5× SDS loading buffer, and western blot analysis was conducted as previously described ([Lan et al., 2023]). In the competitive binding assay, 50 nM purified MIK2 protein featuring a His-tag at its C-terminal was initially mixed with 250 nM of biotinylated SCOOP10. […] After thorough mixing, the beads underwent 5–6 washes to meticulously remove any residual proteins, and then the preparations were subjected to detailed analysis via western blotting to probe the interactions.
(A western blot detects proteins with antibodies after separation by electrophoresis.)

Assay [4] relates to 6× His-tagged ectodomains of MIK2. Briefly: Competitive pull-down assay. It counts as binding, Arabidopsis thaliana. Conditions: 50 nM MIK2 ectodomain, 250 nM biotinylated SCOOP10 or SCOOP12, 1 h, then increasing concentrations of the other peptide; anti-His Western blot, densitometry; three replicates. Here is the method:
as §2

Assay [5] deals with MIK2-GFP (pMIK2::MIK2-GFP/mik2-1 plants). The assay can be described thus: MIK2-phosphorylation assay in detached leaves. The following applies: 5 μM peptide, 0, 1, 2, 4 h, pMIK2::MIK2-GFP/mik2-1 leaves; GFP IP, anti-pThr blot; vs mock. The class given is cell-based, Arabidopsis thaliana. Here is the method: Transgenic A. thaliana T3 homozygous plants expressing MIK2-GFP under the control of its native promoter were grown under long-day conditions (16 h light/8 h dark) for 4 weeks before sampling. […] Leaves were subjected to vacuum infiltration at room temperature for 30 min. Following treatment, the leaves were rapidly frozen in liquid nitrogen and ground into a fine powder. […] The samples were incubated for 30 min at 4°C with gentle agitation, followed by centrifugation at 14 000 rpm for 20 min at 4°C to remove debris. The supernatant was then incubated with anti-GFP agarose beads (Abcam, AE079) overnight at 4°C for immunoprecipitation (IP). […] The 30-μL eluted proteins were resolved on 7.5% SDS-PAGE gels and transferred onto polyvinylidene fluoride membranes. […] Abcam, AB6556), goat anti-rabbit immunoglobulin G (IgG) (H + L)-horseradish peroxidase (HRP) antibody (1:4000; Abcam, AB6721) and its phosphorylation status using anti-pThr antibodies (1:750, Cell Signaling, 9386), goat anti-mouse IgG (H + L)-HRP antibodies (1:2000; Abcam, AB6789), respectively.

Assay [6] concerns the target T1, MIK2 ectodomain (MIK2^LRR-MBP) (Arabidopsis thaliana, UniProt Q8VZG8).
T1 construct: expressing only the ectodomain (residues 45–707); made in house; host or cells: E. coli strain BL21
T1 sequence (Q8VZG8 45-707): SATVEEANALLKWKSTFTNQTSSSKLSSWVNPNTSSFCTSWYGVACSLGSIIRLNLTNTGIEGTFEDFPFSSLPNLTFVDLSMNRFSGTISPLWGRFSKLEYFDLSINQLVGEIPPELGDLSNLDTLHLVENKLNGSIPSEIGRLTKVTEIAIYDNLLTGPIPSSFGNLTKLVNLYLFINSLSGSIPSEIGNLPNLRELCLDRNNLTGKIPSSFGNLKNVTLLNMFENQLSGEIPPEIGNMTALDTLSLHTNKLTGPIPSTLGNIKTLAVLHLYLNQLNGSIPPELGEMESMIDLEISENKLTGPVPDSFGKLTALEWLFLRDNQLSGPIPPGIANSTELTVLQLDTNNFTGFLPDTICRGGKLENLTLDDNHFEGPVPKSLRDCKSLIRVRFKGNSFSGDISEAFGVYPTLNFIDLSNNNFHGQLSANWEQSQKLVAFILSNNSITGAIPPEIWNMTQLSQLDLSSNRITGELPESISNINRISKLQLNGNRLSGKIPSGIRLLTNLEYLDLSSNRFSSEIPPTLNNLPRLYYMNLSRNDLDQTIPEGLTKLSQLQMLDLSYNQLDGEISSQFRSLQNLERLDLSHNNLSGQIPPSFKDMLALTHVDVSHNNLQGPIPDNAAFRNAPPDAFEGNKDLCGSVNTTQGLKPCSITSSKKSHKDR
Briefly: MST competitive binding analysis. The following applies: MST competition (Figure 5F).
Protocol: To express MIK2 protein in the soluble form, the truncated sequence of MIK2 (MIK2 ^LRR) expressing only the ectodomain (residues 45–707) was amplified from the gMIK2-Blunt subclone vector and inserted into the pET41 vector, fused with a 6× His-MBP tag. Then, the ectodomain of MIK2 (MIK2^LRR) in the absence of the putative N-terminal signal peptide was expressed in E. coli strain BL21 (TransGen). Cell cultures were grown to 0.6 optical density 600 and then induced with 0.3 mM isopropyl-β-D-thiogalactopyranoside for 30 h at 13°C. The mixture was then centrifuged at 12 000 rpm to separate the cells from the medium. The pellets were resuspended with the binding buffer (20 mM phosphate buffer, 500 mM NaCl, 50 mM imidazole, pH 7.4). The cells were sonicated on ice for 30 min in the lysis buffer (0.2 mg/mL lysozyme, 20 μg/mL DNAse, 1 mM MgCl2, 1 mM PMSF). […]
A Monolith NT.115 system (Nanotemper Technologies) was used to perform MST assays. […] The concentration of purified MIK2^LRR was measured with the BCA Protein Quantification Kit (Vazyme) and then diluted with ddH2O to 20 μM. […] MST results were analyzed using the Nanotemper analysis software (MO. Affinity) ([Jerabek-Willemsen et al., 2011]). […] The dissociation constant Ki was determined using the Ki Finder Tool available on the NanoTemper Technologies website (http://www.nanotempertechnologies.com/get-it-all/tools/ki-finder/).

A further assay deals with PROSCOOP10 transcript. The assay can be described thus: qPCR expression of PROSCOOP10 in detached leaves. It counts as cell-based, Arabidopsis thaliana. The text has this: Total RNA was isolated from Arabidopsis leaves with the RNAiso Plus (TAKARA) and reverse transcribed using the PrimeScript RT reagent Kit (TAKARA). qPCR reactions were implemented in an Applied Biosystems 7500 Real-Time PCR system with the SYBR Premix Ex Taq II (TAKARA). ACTIN was used as the reference gene for qPCR analyses. The primers used for qPCR are listed in Supplemental Table 2.
Background: Quantitative PCR measures a nucleic acid by following its amplification.

B1: SERINE-RICH ENDOGENOUS PEPTIDE 10 (peptide)
peptide: ALPYHHELFLGRKRMNYYKPNSAIGTPSSTSDHAPGSNGRKLMSIYRPNGDIFTGPSGSGHGGGRTPAP
notes: processed from PROSCOOP10; synthesized by GenScript
Turning to B1, the “senescence induction, WT compared with mik2 mutants” value in assay [1] is “More profound senescence was induced by SCOOP10 treatments in WT than in mik2 mutant plants”. In assay [2] (SCOOP10 alone, Figures 5D and 5E, n = 8 leaves per replicate), the “senescence phenotype, SCOOP10 alone (sequential assay control)” value is given as “significant senescence phenotypes”. Moreover, in assay [2] (exogenous peptide, SCOOP10 1 μM for 5 days (Figure 2A, 2B; Supplemental Figure 3)), the “leaf senescence phenotype, detached leaves” value is listed as “premature senescence phenotype in detached leaves”. The “interaction with MIK2 ectodomain” value in assay [3] is “SCOOP10 interacts with MIK2”. Moreover, in assay [4], the “competition for MIK2 binding (pull-down signal)” value is recorded as “the SCOOP12-MIK2 complex resulted in a stable interaction with SCOOP10 application at the concentrations tested”. For the same molecule, the MIK2 kinase phosphorylation result in assay [5] was “MIK2 phosphorylation decreased drastically over time compared to the mock controls”. For the same molecule, the “effect of competitor peptide on the MIK2 complex of the other peptide (MST)” value in assay [6] was “limited effect on the MIK2-SCOOP12 complex stability maintenance”. Further, in the assay with PROSCOOP10 transcript (1 μM peptide, detached leaves, vs mock, qPCR), the PROSCOOP10 expression entry is on record as “reduced expression”. Also, the “PROSCOOP10 expression, SCOOP10/SCOOP10-pretreated leaves” value in the assay with PROSCOOP10 transcript (reduction in SCOOP10/SCOOP10-pretreated leaves vs mock, 1 μM) is “more pronounced”.

The values above are taken from publication PMC11630628 (Molecular Plant, 2024).
